The text below walks through data of US20230167458A1, “FORSKOLIN-INDUCIBLE PROMOTERS AND HYPOXIA-INDUCIBLE PROMOTERS” (ASKLEPIOS BIOPHARMACEUTICAL, INC., priority 2020, published 2023).

“Also recorded” adds a separate entry of the source.

The subject of data set [1] is C2C12 human muscle cell line. Put plainly: Luciferase expression from forskolin-inducible promoter, transient transfection in differentiated C2C12. It counts as cell-based. On the procedure:
(§1) Luciferase readouts were normalised to β-galactosidase to produce normalised relative luminometer units (RLUs). β-galactosidase containing pcDNA6 plasmid was used as internal control for transfection efficiency (Thermofisher, V22020). β-galactosidase activity was measured as per manufacturer's instructions (Mammalian βGalactosidase Assay Kit, 75707/75710, Thermo Scientific) using 25 μl of lysate. 25 μl of lysate was transferred into a microplate well and mixed with 25 μl of β-galactosidase Assay Reagent, equilibrated to room temperature. The mixture was incubated at 37° C. for 30 min and absorbance measured at 405 nm.
(§2) The forskolin-inducible promoters were initially used to drive expression of luciferase in the Huh7 human liver cell line and the C2C12 […]. The promoter constructs were used to drive expression of luciferase in the PM-RQ plasmid. The tested promoters were synthesised directly upstream of the ATG of PM-RQ plasmid.
• Media was prewarmed at 37° C. before use • C2C12 Complete Medium was used to grow the cells before differentiation. […]
C2C12 cells were maintained at 37° C., 5% CO2. […] Detachment was monitored under the microscope. • 4 ml C2C12 Complete Medium was added to inactivate Trypsin and the cells were transferred into a 15 ml tube. • The cells were centrifuged for 3 mins at 250 RCF at room temperature. • The supernatant was aspirated • The cells were resuspended by gentle pipetting up and down in 6 ml C2C12 Complete Medium • The cells were counted in a haemocytometer by using trypan blue (Thermofisher, 15250061) to determine the how many of the cells were alive. Trypan blue stains dead cells in blue and this allows for them not to be counted. The cells were resuspended into trypan blue in ration of 1:10, e.g. 10 μl cells and 90 μl trypan blue and counted using a haemocytometer. • The cells were seeded in complete medium at a density dependent on the passage number. […] The abovementioned densities are experimentally determined for efficient differentiation and transfection. […]

Data set [2] deals with Huh7 human liver cell line. As to the kind of experiment: Luciferase expression from forskolin-inducible promoters, transient transfection of PM-RQ plasmid in Huh7. The format is cell-based. More on the design: luciferase activity following induction / fold induction of promoter (luciferase activity): dose or concentration left out as unconfirmed. On the procedure:
as §1, §2
• Huh7 cells which are a human liver cell line • DPBS: without CaCl2, without MgCl2 (Gibco, 14190-094) • DMEM (Sigma, D6546) • FBS (Sigma, F9665) • Pen-Strep (Sigma, P4333) • Promega Fugene-HD (E2311) • Forskolin (Sigma, F6886) • NKH477 (Sigma, N3290) • LARII (Dual Luciferase Reporter 1000 assay system, Promega, E1980) • 48 well plates flat bottom (353230, Corning) • Trypsin-EDTA (25200-056, Gibco) • T25 & T75 flask (353108, 353136, Corning) • 15 ml Falcon tubes (430791, Corning) • Stripettes 5 ml, 10 ml and 25 ml (4101,4051,4251, Corning)
Cells were seeded onto a 48 well plate at a density of 25,000 cells/300 μl
• On the day of transfection, DNA to be transfected was diluted to a 100 ng/μl stock solution. DNA to be transfected was the RTV-017, RTV-019 or CMV-IE promoter driving luciferase in the PM-RQ plasmid. • Per 48 well transfection, 45 ng of DNA was mixed with 4.1 μl of Optimem medium. • 0.5 μl of […] was mixed with 4 μl of Optimem medium. • These 2 solutions were mixed and incubated at room temperature for 15 minutes. • The final solution was then added to the well drop wise. • 3 hrs after transfection the inducer was added to the appropriate wells at the indicated concentration. Inducer was forskolin at […].
• 24 hrs after induction, the luciferase activity was measured as described below.
• Luciferase activity was measured using LARII (Dual Luciferase Reporter 1000 assay system, Promega, E1980) • 24 hours after induction, the media was removed from the cells • The cells were washed once in 300 μl of DPBS. • Cells were lysed using 100 μl of passive lysis buffer and incubated with rocking for 15 minutes. • The cell debris was pelleted by centrifugation of the plate at max speed in a benchtop centrifuge for 1 min • For luciferase, 10 μl sample was transferred into white 96-well plate and luminescence measured by injection of 50 μl of LARII substrate
RTV-017 and RTV-019 were transiently transfected into the human liver cell line Huh7 (FIG. 2). RTV-019 was transiently transfected into the […] C2C12 (FIG. 3). The activity of the promoters was assessed using luciferase activity. The luciferase activity was measured with and without the presence of […] forskolin.

B1: RTV-019: synthetic forskolin-inducible promoter, SEQ ID NO: 44; 3× ATF6, 4× AP1(1) and 3× HRE1 TFBS and CMV-MP (nucleic acid)
DNA: TGACGTGCTGATGATGCGTAGCTAGTAGTTGACGTGCTGATGATGCGTAGCTAGTAGTTGACGTGCTGATGATGCGTAGCTAGTAGTTGAGTCAGATGATGCGTAGCTAGTAGTTGAGTCAGATGATGCGTAGCTAGTAGTTGAGTCAGATGATGCGTAGCTAGTAGTTGAGTCAGATGATGCGTAGCTAGTAGTCTGCACGTAGATGATGCGTAGCTAGTAGTCTGCACGTAGATGATGCGTAGCTAGTAGTCTGCACGTAGATGATGCGTAGCTAGTAGTGCAGTTAGCGTAGCTGAGGTACCGTCGACGATATCGGATCCAGGTCTATATAAGCAGAGCTCGTTTAGTGAACCGTCAGATCGCCTAGATACGCCATCCACGCTGTTTTGACCTCCATAGAAGATCGCCACC
modifications: Synp-RTV-019
notes: 3× ATF6, 4× AP1(1) and 3× HRE1 TFBS and CMV-MP
For B1, the “luciferase activity following induction” value in data set [1] (C2C12, 20 µM forskolin) is given as “high activity; also recorded: much higher activity”; in data set [2] (Huh7, forskolin), “high activity; also recorded: much higher activity”. In addition, the “luciferase activity without induction (background)” value in data set [1] (C2C12, before addition of forskolin) is given as “low background activity”; in data set [2] (Huh7, before addition of forskolin), “low background activity”. In addition, the “fold activation of promoter (luciferase activity)” value in data set [1] (C2C12 muscle cells, 20 µM forskolin, 24 hrs) is listed as 6 fold. Also, the “fold induction of promoter (luciferase activity)” value in data set [2] (Huh7 liver cells, PM-RQ plasmid, forskolin, 24 hrs after induction) is recorded as 24 fold.
